From the nanobody polyreactivity screen of Harvey et al. (2022) come the findings set out here.

The data set is described as follows: yeast display, Sf9 membrane polyspecificity reagent, FACS + sequencing; frameworks hold sequencing errors. In outline: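 After 36–48 hours of galactose induction, yeast (Saccharomyces cerevisiae BJ5465) displaying a synthetic nanobody library were stained at 4 °C for 1 hour with 10% biotinylated, detergent-solubilized Sf9 membrane reagent. Streptavidin microbeads enriched the stained cells before FACS sorting into low and high (top ~1%) gates on anti-HA and streptavidin fluorescence. Each clone's polyreactivity label reflects its gate of origin.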
Take “QVQLVESGGGLVQAGGSLRLSCAASGRTFRDNAMGWYRQAPGKERELVAAISSGDRTNYADSVKGRFTISRDNAKNTVYLQMNSLKPEETAVYYCAAVRYNSRVSTTPSEMYYWGQGTQVTVSS”: the “polyreactivity (PSR sort gate)” value was “low polyreactivity”.

On to “QVQLVESGGGLVQAGGSLRLSCAASGRTFRDNAMGWYRQAPGKERELVAAISWSGGSTYYADSVKGRFTISRDNAKNTVYLQMNSLKPEDTAVYYCAASGYYRYTPFRYDHWGQGTQVTVSS”, for which the “polyreactivity (PSR sort gate)” value is on record as “low polyreactivity”.

Turning to “QVQLVESGGGLVQAGGSLRLSCAASGRTFRDYVMGWYRQAPGKERELVAAISTRGASTYYADSVKGRFTISRDYAKNTVYLQMNSLKPEDTAVYYCAARSTRRGNEYDYWGQGTQVTVSS”, the “polyreactivity (PSR sort gate)” value was “high polyreactivity”.

With “QVQLVESGGGLVQAGGSLRLSCAASGRTFRFNTMGWYRQAPGKERELVAAITSSGGSTYYADSVKGRFTISRDNAKNTVYLQMNSLKPEDTAVYYCAKRFYYRNRFDYWGQGTQVTVSS”, the “polyreactivity (PSR sort gate)” value is on record as “low polyreactivity”.

For the sequence “QVQLVESGGGLVQAGGSLRLSCAASGRTFRFYAMGWYRQAPGKERELVAAITYGGGSTYYADSVKGRFTISRDNAKNTVYLQMNSLKPEDTAVYYCAARAGRVPSWSGRTRYYYGGQGTQVTVSS”, the “polyreactivity (PSR sort gate)” value is “high polyreactivity”.

In the case of “QVQLVESGGGLVQAGGSLRLSCAASGRTFRFYVMGWYRQAPGKERELVAAISRGGGSTYYADSVKGRFTISRDNAKNTVYLQMNSLKPEDTAVYYCAAKPYKTRSSYWGDYYWGQGTQVTVSS”, the “polyreactivity (PSR sort gate)” value is “high polyreactivity”.

Consider “QVQLVESGGGLVQAGGSLRLSCAASGRTFRGNAIGWYRQAPGKERELVAAIRWNGGSTYYADSVKGRFTISRDNAKNTVYLQMNSLKPEDTAVYYCAVSYWYSRYDYWGQGTQVTVSS”, for which the “polyreactivity (PSR sort gate)” value is on record as “high polyreactivity”.

Turning to “QVQLVESGGGLVQAGGSLRLSCAASGRTFRGNAMGWYRQAPGKERELVAAISGSGGRTYYADSVKGRFTISRDNAKNTVYLKMNSLKPEDTAVFYCAAKRGKTYQRFDYWGQGTQVTVSS”, the “polyreactivity (PSR sort gate)” value is recorded as “high polyreactivity”.

With “QVQLVESGGGLVQAGGSLRLSCAASGRTFRGNAMGWYRQAPGKERELVAAISRGGSTKYADSVKGRFTISGDNAKNTVYLQMNSLKPEDTAVYYCAADNRKSRYDYWGQGTQVTVSS”, the “polyreactivity (PSR sort gate)” value is recorded as “high polyreactivity”.

In the case of “QVQLVESGGGLVQAGGSLRLSCAASGRTFRGNAMGWYRQAPGKERELVAAISRRGVSTYYADSVKGRFTISRDNAKNTVYLQMNSLKPEDTAVYYCNADTSYQRVGGNYWGQGTQVTVSS”, the “polyreactivity (PSR sort gate)” value was “high polyreactivity”.

With “QVQLVESGGGLVQAGGSLRLSCAASGRTFRGNAMGWYRQAPGKERELVAAISWSGGRTYYADSVKGRFTISRDNAKNTVYLQMNSLKPEDTAVYYCAAGVPKNGQAGYDYWGQGTQVTVSS”, the “polyreactivity (PSR sort gate)” value is listed as “high polyreactivity”.

On to “QVQLVESGGGLVQAGGSLRLSCAASGRTFRGNAMGWYRQATGKERELVDVITASGSTTYADSVKGRFTISRDNAKNTVYLQLYSLKPEDTAVYYCAKYVPWYTLWLGGTDRDYWGQGTQVTVSS”, for which the “polyreactivity (PSR sort gate)” value is on record as “low polyreactivity”.

On to “QVQLVESGGGLVQAGGSLRLSCAASGRTFRGNAMRWYRQAPGKERELVAAIRWNGGSTYYADSVKGRFTISRDNAKNTVYLQMNSLKPEDSAVYYCAVSYWYSRYDYWGQGTQVTVSS”, for which the “polyreactivity (PSR sort gate)” value is “high polyreactivity”.

Regarding “QVQLVESGGGLVQAGGSLRLSCAASGRTFRGNVMGWYRQAPGKEREFVAAITKSDGSTYYADSVKGRFTISRDNAKNTVYLQMNSLKPEDTAVYYCAARTARTGWPWFRYDYWGQGTQVTVSS”, the “polyreactivity (PSR sort gate)” value was “low polyreactivity”.

Regarding “QVQLVESGGGLVQAGGSLRLSCAASGRTFRGYAMGWYRQAPGKERELVAAITWRGGSTKYADSVKGRFTISRDNAKNTVYLKMNSLKPEDTAVYYCAAARHYLTFWGQGSQVTVSS”, the “polyreactivity (PSR sort gate)” value is “high polyreactivity”.

In the case of “QVQLVESGGGLVQAGGSLRLSCAASGRTFRGYAMGWYRQAPGKETELVAAISSGGSTYYADSVKGRFTSSRDNAKYTVYLQMNSLKPEDTAVYYCARAVGNYRTLEFDYWGQGTQVTVSS”, the “polyreactivity (PSR sort gate)” value is listed as “low polyreactivity”.

Consider “QVQLVESGGGLVQAGGSLRLSCAASGRTFRGYVMGWYRQAPGKERELVASISYSGGSTYYADSVKGRFTISRDNAKNTVYLQMNSLKPEDTAVYYCAARKGYDQYRWRYSQNNYWGQGTQVTVSS”, for which the “polyreactivity (PSR sort gate)” value was “high polyreactivity”.

Consider “QVQLVESGGGLVQAGGSLRLSCAASGRTFRLYAMGWYRQAPGKERELDAAIRTDDSTNYADSVKGRFTISRDNAKNTVYLQMNSLKPEDTAVYYCNAEGQFTWLGRRRHKFEYWGQGTQVTVSS”, for which the “polyreactivity (PSR sort gate)” value is on record as “low polyreactivity”.

For “QVQLVESGGGLVQAGGSLRLSCAASGRTFRLYAMGWYRQAPGKERELVAAIRSGGSTNYADSVKGRFTISRDNEKNTVYLQMNSLKPEYTAVYYCAVDGYFFQGPYYYWGQGTQVTVSS”, the “polyreactivity (PSR sort gate)” value is recorded as “low polyreactivity”.

For “QVQLVESGGGLVQAGGSLRLSCAASGRTFRLYAMGWYRQAPGKERELVAAISYSDGRTYYADSVKGRFTISRDNAKNTVYLQMNSLKPEDTAVYYCAAETLYVSPYFYVVQYDYWGQGTQVTVSS”, the “polyreactivity (PSR sort gate)” value is “high polyreactivity”.

With “QVQLVESGGGLVQAGGSLRLSCAASGRTFRLYAMGWYRQAPGKERELVAAITFRGGRTYYADSVKGRFTISRDNAKNTVYLQMNSLKPEYTAVYYCNAVTYSSPYRFDYWGQGTQVTVSS”, the “polyreactivity (PSR sort gate)” value was “low polyreactivity”.

In the case of “QVQLVESGGGLVQAGGSLRLSCAASGRTFRLYAMGWYRQAPGKERELVAVIRAGDSTNYADSVKGRFTISRDNAKNTVYLQLNSLKPDDTAVSYCAADVLYYYGKYDYWGQGTQVTVSS”, the “polyreactivity (PSR sort gate)” value is “high polyreactivity”.

On to “QVQLVESGGGLVQAGGSLRLSCAASGRTFRNNTMGCYRQAPGKERELVATITGSGGSTYYADSVKGRFTISRDNSKNTVYLQMNSLKPEDTAVYYCAAVGDQNEYVYWGQGTQVTVSS”, for which the “polyreactivity (PSR sort gate)” value is “low polyreactivity”.

Consider “QVQLVESGGGLVQAGGSLRLSCAASGRTFRNYAMGWSRPAPWKERELVATITSSGASTYYADSVKGRFTISRDNAKNTVYLQMNSLKPEDTAVYYCAARPYTGRYFLCYYYWGQGTQVTVSS”, for which the “polyreactivity (PSR sort gate)” value is listed as “high polyreactivity”.

Consider “QVQLVESGGGLVQAGGSLRLSCAASGRTFRPYAMGWSRQAPGKERELVAAIDSSGTSTYYADSVKGRFTISRDNAKNTVYLQMNSLKPEDTAVYYCAKAWPDHWYSRYDYWGQGTQVTVSS”, for which the “polyreactivity (PSR sort gate)” value was “low polyreactivity”.

Take “QVQLVESGGGLVQAGGSLRLSCAASGRTFRPYAMGWYRPAPGKERELVAAISSRGSSTYYADSVKGRFTISRDNAKNTVYLQMNSLKPEDTAVYYCAARSYWGGLRYDYWGQGTQVTVSS”: the “polyreactivity (PSR sort gate)” value is recorded as “high polyreactivity”.

For the sequence “QVQLVESGGGLVQAGGSLRLSCAASGRTFRPYAMGWYRQAPGKERELVAAISQSVGSTYYADSVKGRFTISRDNAKNTVYLQMNSLKPEDTAVYYCAADRWSATHYVWYDYWGQGTQVTVSS”, the “polyreactivity (PSR sort gate)” value is on record as “high polyreactivity”.

In the case of “QVQLVESGGGLVQAGGSLRLSCAASGRTFRPYAMGWYRQAPGKERQFVAAISSSGGSTYYADSVKGRFSISRDNAKNTVYLLMNSLKPEDTAVYYCATGRKNAAQRWGYYYWGQGTQVTVSS”, the “polyreactivity (PSR sort gate)” value is listed as “high polyreactivity”.

For “QVQLVESGGGLVQAGGSLRLSCAASGRTFRPYDMGWYRQAPGKERELVATITTNGGSTYYADSVKGRFTISRDNAKNTVYLQMNSLKPEDTAVYYCATDNWWQTYHYQGGYYWGQGTQVTVSS”, the “polyreactivity (PSR sort gate)” value is “low polyreactivity”.

As for “QVQLVESGGGLVQAGGSLRLSCAASGRTFRQYAMGWYRQAPGKERELVATISSGGSTYYADSVKGRFTISRDNAKNTVYLHMNSLKPEDTAVYYCNAEGQWSRAPRDYWGQGTQVTVSS”, the “polyreactivity (PSR sort gate)” value is “low polyreactivity”.
